Kd data for seven molecules are collected here from US20150374663A1.

Ends that are not written are not given here.

Experiment [1] addresses type V tartrate-resistant acid phosphatase (TRAP) protein, immobilised on CM5 sensor chip. Kind of experiment: SPR, TRAP-functionalized surface, binding curve fit (n = 2, Ave. ± StDev). (Surface plasmon resonance follows binding to a sensor surface in real time, without labels.)
Experiment [2] shares this target. As to the kind of experiment: SPR, TRAP-functionalized surface; upper end of the range told of the peptide-functionalized polymers, tied to the 5% polymer through Table 1.
For experiment [3] the target is unchanged. Kind of experiment: SPR, TRAP amine-coupled to CM5 chip, initial rate analysis of sensorgrams.
Experiment [4] has the same target. As to the kind of experiment: SPR, TRAP-functionalized surface; lower end of the range told of the peptide-functionalized polymers, tied to the 20% polymer through Table 1.

A word on the Kd: it is a measure of binding affinity in units of concentration. Lower therefore signals tighter binding.

B1: 10% peptide monomer TBP-functionalized PEG polymer of Table 1 (Mn 69000 Da, 7.5% peptide incorporated) (peptide)
peptide: TPLSYLKGLVTVG-OH
modifications: not fully specified (N-terminus); also: RAFT random copolymer with PEG monomethyl ether methacrylate
As to B1, in experiment [1], the dissociation constant Kd was determined as 12.7 µM.

B2: 5% peptide monomer TBP-functionalized PEG polymer of Table 1 (Mn 103900 Da, 3.9% peptide incorporated) (peptide)
peptide: TPLSYLKGLVTVG-OH
modifications: not fully specified (N-terminus); also: RAFT random copolymer with PEG monomethyl ether methacrylate
Turning to B2, the Kd is 21.7 µM in experiment [1] and 7.1 to 21 µM in experiment [2].

B3: 5% TBP-functionalized PEG polymer of Table 4, M:CTA:I 125:1:0.1, Mn 17.1 kDa (peptide)
peptide: TPLSYLKGLVTVG-OH
modifications: not fully specified (N-terminus); also: RAFT copolymer with PEG methyl ether methacrylate (300 Da), about 3 peptides per chain
The molecule B3 returned a Kd in experiment [3] of 70 µM.

B4: 20% peptide monomer TBP-functionalized PEG polymer of Table 1 (Mn 26700 Da, 17.1% peptide incorporated) (peptide)
peptide: TPLSYLKGLVTVG-OH
modifications: not fully specified (N-terminus); also: RAFT random copolymer with PEG monomethyl ether methacrylate
B4: the results for the Kd in experiment [1] and in experiment [4] were 7.5 µM and 7.1 to 21 µM, respectively.

B5: 5% TBP-functionalized PEG polymer of Table 4, M:CTA:I 600:1:0.1, Mn 98.2 kDa (peptide)
peptide: TPLSYLKGLVTVG-OH
modifications: not fully specified (N-terminus); also: RAFT copolymer with PEG methyl ether methacrylate (300 Da), about 11 peptides per chain
With B5, in experiment [3], the Kd was 140 µM.

B6: 5% TBP-functionalized PEG polymer of Table 4, M:CTA:I 250:1:0.1, Mn 42.3 kDa (peptide)
peptide: TPLSYLKGLVTVG-OH
modifications: not fully specified (N-terminus); also: RAFT copolymer with PEG methyl ether methacrylate (300 Da), about 5 peptides per chain
As to B6, the Kd in experiment [3] came out at 80 µM.

B7: 20% TBP-functionalized PEG polymer of Table 4, M:CTA:I 500:1:0.1, Mn 32.7 kDa (peptide)
peptide: TPLSYLKGLVTVG-OH
modifications: not fully specified (N-terminus); also: RAFT copolymer with PEG methyl ether methacrylate (300 Da), about 12 peptides per chain
Turning to B7, the dissociation constant Kd in experiment [3] is 70 µM.
